Laboratory results taken from patent US20110305634A1.
Read-outs that look alike come from different tables or passages of the source.

Experiments:
[1] = molecular target: Ad5/3L-GFP chimeric adenovirus vector (human adenovirus serotype 5; human adenovirus serotype 3) (UniProt P11818)
[2] = molecular target: Recombinant human DSG2 protein (desmoglein 2) (human) (UniProt Q14126); test: SPR, DSG2 immobilized; summary table of FIG. 13B
[3] = molecular target: Recombinant human DSG2 protein (desmoglein 2) (human) (UniProt Q14126); test: SPR, DSG2 immobilised, Ad3-K/S/Kn injected at 10 mg/ml (so in the source)
[4] = molecular target: Recombinant human DSG2 protein (desmoglein 2) (human) (UniProt Q14126); test: SPR, DSG2 immobilized; summary table of FIG. 13B (no unit in the table, RU from the axis of 13B)
[5] = molecular target: Desmoglein 2 (DSG2) of human cells (human) (UniProt Q14126); test: competition of 3H-Ad3 attachment to HeLa cells after pre-incubation with the named protein; the number is the Ad3 still bound (PBS: 512)
[6] = molecular target: Desmoglein 2 (DSG2) of human cells (human) (UniProt Q14126)
[7] = molecular target: Desmoglein 2 (DSG2) of human cells (human) (UniProt Q14126); remark: listed apart in the source
[8] = molecular target: Desmoglein 2 (DSG2) of human cells (human) (UniProt Q14126); remark: listed apart in the source
[9] = molecular target: Desmoglein 2 (DSG2) of human cells (human) (UniProt Q14126); remark: listed apart in the source
[10] = molecular target: Desmoglein 2 (DSG2) of human cells (human) (UniProt Q14126); test: cell-based or functional assay
[11] = molecular target: Recombinant human DSG2 protein (desmoglein 2) (human) (UniProt Q14126); test: SPR, DSG2 immobilised, PtDd injected at 3 mg/ml (so in the source)
[12] = molecular target: Recombinant human DSG2 protein (desmoglein 2) (human) (UniProt Q14126); test: SPR (BIAcore 3000), recombinant human DSG2 immobilised on CM4 chip, PtDd injected

Desmoglein 2 (DSG2) of human cells (human), sequence (Q14126 50-1118): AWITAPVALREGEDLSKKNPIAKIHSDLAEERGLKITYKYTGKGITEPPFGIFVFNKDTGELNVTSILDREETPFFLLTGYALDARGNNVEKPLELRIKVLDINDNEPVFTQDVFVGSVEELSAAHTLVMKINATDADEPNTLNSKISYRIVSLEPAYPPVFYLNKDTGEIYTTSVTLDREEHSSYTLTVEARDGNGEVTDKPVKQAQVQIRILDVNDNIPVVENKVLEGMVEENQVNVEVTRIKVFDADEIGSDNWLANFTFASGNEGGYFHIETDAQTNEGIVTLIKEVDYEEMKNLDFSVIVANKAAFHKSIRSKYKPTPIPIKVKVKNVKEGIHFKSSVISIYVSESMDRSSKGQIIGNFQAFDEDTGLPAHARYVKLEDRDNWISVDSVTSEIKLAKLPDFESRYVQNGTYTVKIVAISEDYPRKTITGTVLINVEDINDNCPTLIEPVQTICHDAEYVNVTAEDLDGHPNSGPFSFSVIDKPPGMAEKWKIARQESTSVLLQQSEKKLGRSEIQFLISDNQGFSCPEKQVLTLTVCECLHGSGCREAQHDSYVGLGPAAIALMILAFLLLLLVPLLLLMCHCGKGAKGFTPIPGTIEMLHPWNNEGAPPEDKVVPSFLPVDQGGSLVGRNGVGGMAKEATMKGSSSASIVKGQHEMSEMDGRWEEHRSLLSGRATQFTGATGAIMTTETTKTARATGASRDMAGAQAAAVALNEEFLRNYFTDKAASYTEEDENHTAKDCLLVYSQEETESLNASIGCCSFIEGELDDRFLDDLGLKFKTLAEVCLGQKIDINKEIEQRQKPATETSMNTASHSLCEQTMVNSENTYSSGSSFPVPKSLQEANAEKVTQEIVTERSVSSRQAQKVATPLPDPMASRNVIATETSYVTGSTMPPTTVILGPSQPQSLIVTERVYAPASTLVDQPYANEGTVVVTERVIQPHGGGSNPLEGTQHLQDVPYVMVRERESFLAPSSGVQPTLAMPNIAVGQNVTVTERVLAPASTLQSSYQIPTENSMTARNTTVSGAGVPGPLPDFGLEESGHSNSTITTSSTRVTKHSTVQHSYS
Recombinant human DSG2 protein (desmoglein 2) (human), sequence (Q14126 50-609 limits assumed): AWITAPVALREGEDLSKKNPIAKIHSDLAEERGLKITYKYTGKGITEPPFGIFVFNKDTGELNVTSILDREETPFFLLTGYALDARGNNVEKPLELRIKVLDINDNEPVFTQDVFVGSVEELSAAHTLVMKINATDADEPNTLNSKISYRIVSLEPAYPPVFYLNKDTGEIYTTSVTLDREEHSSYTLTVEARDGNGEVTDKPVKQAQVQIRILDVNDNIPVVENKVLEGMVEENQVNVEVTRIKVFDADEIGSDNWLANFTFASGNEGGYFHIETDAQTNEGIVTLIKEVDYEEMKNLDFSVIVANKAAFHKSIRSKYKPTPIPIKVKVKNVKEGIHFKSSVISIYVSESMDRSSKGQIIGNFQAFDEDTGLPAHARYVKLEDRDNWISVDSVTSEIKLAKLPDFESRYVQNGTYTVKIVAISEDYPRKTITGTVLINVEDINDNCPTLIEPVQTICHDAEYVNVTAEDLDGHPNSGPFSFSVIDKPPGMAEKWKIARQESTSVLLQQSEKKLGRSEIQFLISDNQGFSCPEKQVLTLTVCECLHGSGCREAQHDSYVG
Recombinant human DSG2 protein (desmoglein 2), sequence (Q14126 50-609 limits assumed): as above

With “Recombinant human DSG2 protein (desmoglein 2) (from UniProt Q14126 50-609) (receptor)” the IC50 (read off the curve), Ad5/3L-GFP transduction of HeLa cells (GFP MFI) [1] was 1 mg/L.
In the case of “Ad3-K/S/Kn, junction opener 1 (JO-1) (ligand; other documents disagree on this pair)”, the % of remaining binding after 150s [2] is reported as 85.9%, the SPR response [3] is reported as 100 RU and the Binding at the end of association [4] is reported as 113 RU. It also gave a Remaining binding after 150s dissociation [4] of 96.9 RU.
Recombinant Ad3 base dodecahedra (BsDd) was tested, and the Bound 3H-Ad3 VP/cell (with this competitor) [5] was 556 VP/cell.
“Recombinant Ad3 penton-dodecahedra (PtDd)” showed an IC50 (read off the curve), Ad3-GFP infection of HeLa cells (% of GFP+ cells) [6] of 0.7 mg/L, an IC50 (read off the curve), Ad3-GFP transduction of HeLa cells (GFP MFI) [7] of 0.2 mg/L and an IC50 (read off the curve), Ad5/3L-GFP transduction of HeLa cells (GFP MFI) [7] of 0.5 mg/L. For the same substance, the IC50 (read off the curve), Ad5/3S-GFP transduction of HeLa cells (GFP MFI) [7] was 0.2 mg/L, the IC50 (read off the curve), Ad3-GFP transduction of HeLa cells (% of GFP+ cells) [8] was 1 mg/L and the IC50 (read off the curve), Ad3-GFP transduction of HeLa cells (% of GFP+ cells) [9] was 2 mg/L. It also gave a Herceptin cytotoxicity on BT474 cells (WST-1 viability) [10] of 2 fold, a % of remaining binding after 150s [2] of 98% and an SPR response [11] of 100 RU. It also gave a Kd [12] of 2.5 nM, a Binding at the end of association [4] of 133 RU and a Remaining binding after 150s dissociation [4] of 130 RU. It also gave a Bound 3H-Ad3 VP/cell (with this competitor) [5] of 12 VP/cell.
